These results are taken from US20240400703A1 (Genmab, published 2024).

In general, EC50 refers to the concentration at which the effect is half-maximal. Low values mean higher potency in that assay, high ones lower potency in that assay.

Assay [1] deals with T1, human OX40 expressed on cells (human, UniProt P43489 29-277).
T1 construct: also called CD134; TNFRSF4
T1 sequence: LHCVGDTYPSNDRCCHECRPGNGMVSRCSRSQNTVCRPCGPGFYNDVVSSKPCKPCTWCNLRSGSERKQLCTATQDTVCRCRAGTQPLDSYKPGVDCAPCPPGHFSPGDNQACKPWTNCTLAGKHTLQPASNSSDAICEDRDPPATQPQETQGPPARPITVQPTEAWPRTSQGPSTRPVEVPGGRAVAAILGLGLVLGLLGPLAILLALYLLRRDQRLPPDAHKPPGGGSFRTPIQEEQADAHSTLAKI
Briefly: flow cytometry, activated human CD4+ T cells, mean of 3 donors; CD4+ T cells. Background: Flow cytometry measures light scatter and fluorescence of single cells or particles in a stream.

The target of assay [2] is T2, C1q (from normal human serum) (human, UniProt P02745 23-245; P02746 28-253; P02747 29-245).
T2 construct: also called complement factor C1q
T2 sequence (P02745 23-245 limits assumed, chain 1 of 3): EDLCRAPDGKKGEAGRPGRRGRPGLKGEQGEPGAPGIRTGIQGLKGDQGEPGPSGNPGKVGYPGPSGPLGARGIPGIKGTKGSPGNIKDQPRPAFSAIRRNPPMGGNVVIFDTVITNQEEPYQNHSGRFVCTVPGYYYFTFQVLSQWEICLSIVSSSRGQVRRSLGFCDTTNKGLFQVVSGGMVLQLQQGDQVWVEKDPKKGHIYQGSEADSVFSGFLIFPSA
T2 sequence (P02746 28-253 limits assumed, chain 2 of 3): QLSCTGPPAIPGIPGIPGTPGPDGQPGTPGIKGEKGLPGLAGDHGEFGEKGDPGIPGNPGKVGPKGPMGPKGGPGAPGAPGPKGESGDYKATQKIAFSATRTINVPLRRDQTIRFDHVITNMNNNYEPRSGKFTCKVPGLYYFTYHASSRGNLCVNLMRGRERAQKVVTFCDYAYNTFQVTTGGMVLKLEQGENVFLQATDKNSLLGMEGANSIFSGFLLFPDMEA
T2 sequence (P02747 29-245 limits assumed, chain 3 of 3): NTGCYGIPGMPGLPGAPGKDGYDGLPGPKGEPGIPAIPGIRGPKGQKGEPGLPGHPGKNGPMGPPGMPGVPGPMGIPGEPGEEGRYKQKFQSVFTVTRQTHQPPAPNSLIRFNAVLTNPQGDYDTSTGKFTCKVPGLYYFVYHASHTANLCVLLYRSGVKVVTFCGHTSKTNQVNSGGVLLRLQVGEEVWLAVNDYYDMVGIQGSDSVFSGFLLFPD
In words: flow cytometry, C1q from 20 % normal human serum on antibody-opsonised activated CD4+ T cells, FITC anti-C1q.
Protocol: Next, cells were washed twice with cold FACS buffer, pelleted, and resuspended in 80 μL FACS buffer supplemented with viability marker TO-PRO™-3 Iodide (Invitrogen, cat. no. T3605; diluted 1:10,000). […] Binding curves were analyzed using nonlinear regression analysis (sigmoidal dose-response with variable slope) using GraphPad Prism software. Binding of OX40 antibodies to the activated T cells was assessed after the incubation step with serial dilutions of antibodies. […] Next, cells were washed twice with cold FACS buffer, pelleted, and resuspended in 80 μL FACS buffer supplemented with viability marker TO-PRO-3 Iodide (diluted 1:10,000). Antibody binding was analyzed by flow cytometry on a BD FACSCelesta Cell Analyzer. Binding curves were analyzed using nonlinear regression analysis (sigmoidal dose-response with variable slope) using GraphPad Prism software.

For assay [3], the target named is T1, human OX40 expressed on cells. In words: flow cytometry, activated human CD8+ T cells, mean of 3 donors; CD8+ T cells. As to the method: Healthy human donor PBMCs were purified essentially as described in Example 7. The cell concentration was adjusted to 2×10⁶ cells per mL (final concentration) in assay medium and plated in 6-well plates (Greiner, cat. no. 657160). PBMCs were stimulated with 0.3 μg/mL anti-CD3 ([…] Technologies, cat. no. 60011) and 0.5 μg/mL anti-CD28 antibodies (BioLegend, cat. no. 302934) and cultured for two days at 37° C., 5% CO₂. Next, the PBMCs were harvested, counted and brought to a concentration of 2×10⁶ cells per mL in FACS buffer 1 (DPBS with 2% heat-inactivated FBS and 2 mM ethylenediaminetetraacetic acid [EDTA]). […] After 60 min at RT, the cells were prepared for flow cytometric analyses. To this end, the cells were washed twice with 150 μL FACS buffer 1 and 30 μL/well cell-surface antibody mix (Table 9) in FACS buffer 1 containing antibody against human Fcγ antibody (Table 9) and fixable viability dye eFluor780 (1:1,500) was added. The staining procedures were carried out at 4° C. for 15-20 min protected from light. Stained cells were washed twice with 120-150 μL FACS buffer 1 (5 min, 460×g, RT) and resuspended in 60-100 μL FACS buffer 1 for direct flow cytometric analyses. Flow cytometric data were acquired on a FACSymphony A3 and analyzed with FlowJo software.

The target of assay [4] is T3, human OX40 with mouse CRD1 (human with mouse CRD1, UniProt P43489 29-277).
T3 construct: on ExpiCHO-S cells; also called OX40-CRD1mm; Shuffle 1
T3 chain: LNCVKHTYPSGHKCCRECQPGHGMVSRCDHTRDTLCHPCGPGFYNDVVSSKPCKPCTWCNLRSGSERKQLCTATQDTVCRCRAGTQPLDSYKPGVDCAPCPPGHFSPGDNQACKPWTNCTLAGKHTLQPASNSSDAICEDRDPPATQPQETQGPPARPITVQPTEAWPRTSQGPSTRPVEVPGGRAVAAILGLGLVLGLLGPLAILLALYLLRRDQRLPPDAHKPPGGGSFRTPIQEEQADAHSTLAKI
In words: flow cytometry, transfected ExpiCHO-S cells, MFI at 5 µg/mL as % of IgG1-CD134-A4453. As for the experimental part: (§1) The four shuffle constructs, as well as wild-type human and mouse OX40 were transiently expressed on ExpiCHO-S cells using the ExpiFectamine™ CHO Transfection Kit (ThermoFisher, cat. no. A29131), according to the manufacturer's protocol. […] Next, cells were washed twice in FACS buffer 1, were resuspended in a 30 μL solution of viability marker ToPro-3 (Invitrogen, cat. no. T3605, diluted 1:10,000) in FACS buffer 1 supplemented with 2 mM EDTA, and were analyzed on an iQue Screener Plus (Intellicyt Corporation, USA). Data were analyzed using FlowJo software and visualized using GraphPad Prism.

In assay [5] the target is T4, human OX40 with mouse CRD3 (human with mouse CRD3, UniProt P43489 29-277).
T4 construct: on ExpiCHO-S cells; also called OX40-CRD3mm; Shuffle 3
T4 chain: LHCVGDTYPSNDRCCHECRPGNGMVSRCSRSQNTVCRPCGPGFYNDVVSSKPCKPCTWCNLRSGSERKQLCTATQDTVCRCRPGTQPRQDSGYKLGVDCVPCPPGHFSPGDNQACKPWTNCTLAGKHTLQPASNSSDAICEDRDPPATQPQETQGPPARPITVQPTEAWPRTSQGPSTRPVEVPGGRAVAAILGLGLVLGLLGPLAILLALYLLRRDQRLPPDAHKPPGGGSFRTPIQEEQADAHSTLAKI
The description is as above. As for the experimental part: as §1

B1: IgG1-CD134-003-HC6LC2-P329R-E345R (antibody)
heavy: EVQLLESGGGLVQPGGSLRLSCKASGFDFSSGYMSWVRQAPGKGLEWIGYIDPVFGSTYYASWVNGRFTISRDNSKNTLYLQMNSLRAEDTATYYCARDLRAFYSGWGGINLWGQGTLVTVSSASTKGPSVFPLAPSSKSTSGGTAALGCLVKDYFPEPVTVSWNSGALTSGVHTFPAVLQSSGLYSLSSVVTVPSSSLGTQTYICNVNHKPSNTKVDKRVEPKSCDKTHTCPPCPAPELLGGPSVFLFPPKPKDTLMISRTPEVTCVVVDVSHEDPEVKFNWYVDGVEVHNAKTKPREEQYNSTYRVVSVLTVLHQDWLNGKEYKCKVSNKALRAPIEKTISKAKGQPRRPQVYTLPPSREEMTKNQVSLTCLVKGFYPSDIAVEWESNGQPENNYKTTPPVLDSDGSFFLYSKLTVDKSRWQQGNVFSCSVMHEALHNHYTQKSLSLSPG
light: AAVLTQSPSSLSASVGDRVTITCQSSQIVVNNNFLSWYQQKPGKAPKLLIYDASNLASGVPDRFSGSGSGTDFTFTISSLQPEDIATYYCLGGYDDDAENAFGGGTKVEIKRTVAAPSVFIFPPSDEQLKSGTASVVCLLNNFYPREAKVQWKVDNALQSGNSQESVTEQDSKDSTYSLSSTLTLSKADYEKHKVYACEVTHQGLSSPVTKSFNRGEC
notes: humanized; human IgG1 with P329R and E345R (Eu numbering), kappa; also called IgG1-CD134-003-HC6LC2-RR
Regarding B1, the EC50 in assay [1] was determined as 0.14 nM; in assay [3], 0.159 nM. For the same molecule, the binding result in assay [2] was “no binding (tested: 30 µg/mL antibody)”; in assay [4], “no binding (tested: 5 µg/mL)”; in assay [5] it was “binds”.
